In the supplement of paper PMC9112550, “Optimization of the antimicrobial peptide Bac7 by deep mutational scanning” (BMC Biology, 2022):

What follows are sequences tested on Escherichia coli TOP10 (assay: shrunken log2 fold change of peptide-encoding DNA abundance (4.5 h post-induction vs induction); higher = less antimicrobial activity (less host growth inhibition)). Details: time post-induction: 4.5 h; library: site-saturation at positions 5, 18, 19, 20.
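Note: peptides expressed intracellularly from a pBAD plasmid library in pooled LB shake-flask culture, induced with 0.3% L-arabinose, DNA abundance read by NGS, three biological replicates, DESeq2 with apeglm shrinkage.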

Sequence | shrunken log2 fold change
RRIRVRPPRLPRPRPRPYAQPRP | 0.0393
RRIRLRPPRLPRPRPRPQQSPRP | -0.047
RRIRTRPPRLPRPRPRPPAEPRP | 0.378
RRIRDRPPRLPRPRPRPVQSPRP | -0.0116
RRIRIRPPRLPRPRPRPAYCPRP | -0.23
RRIRHRPPRLPRPRPRPPKSPRP | 0.398
RRIRPRPPRLPRPRPRPWYPPRP | -0.119
RRIRVRPPRLPRPRPRPSMDPRP | 2.34
RRIRLRPPRLPRPRPRPPMVPRP | -0.192
RRIRNRPPRLPRPRPRPAIPPRP | -0.202
RRIRHRPPRLPRPRPRPEGIPRP | 0.0992
RRIRHRPPRLPRPRPRPMMMPRP | -0.0507
RRIRWRPPRLPRPRPRPAAIPRP | 0.302
RRIRVRPPRLPRPRPRPLVDPRP | -0.196
RRIRFRPPRLPRPRPRPWDAPRP | -0.12
RRIRWRPPRLPRPRPRPARWPRP | 1.07
RRIRIRPPRLPRPRPRPVVVPRP | -0.0561
RRIRQRPPRLPRPRPRPLFNPRP | -0.367
RRIRYRPPRLPRPRPRPWGYPRP | -0.0919
RRIRPRPPRLPRPRPRPMASPRP | 0.011
RRIRVRPPRLPRPRPRPHECPRP | -0.0944
RRIRARPPRLPRPRPRPKHTPRP | 0.264
RRIRQRPPRLPRPRPRPEWHPRP | 0.33
RRIRVRPPRLPRPRPRPWMDPRP | 0.0171
RRIRHRPPRLPRPRPRPYFGPRP | -0.131

Sequence | shrunken log2 fold change
RRIRIRPPRLPRPRPRPNNPPRP | -0.471
RRIRKRPPRLPRPRPRPIVMPRP | 0.0102
RRIRWRPPRLPRPRPRPLFQPRP | -0.0127
RRIRMRPPRLPRPRPRPPSFPRP | -0.0206
RRIRRRPPRLPRPRPRPRMHPRP | 0.516
RRIRVRPPRLPRPRPRPCRNPRP | -0.0211
RRIRARPPRLPRPRPRPAFWPRP | 0.673
RRIRARPPRLPRPRPRPTCVPRP | 0.698
RRIRYRPPRLPRPRPRPRLCPRP | -0.0154
RRIRGRPPRLPRPRPRPKWSPRP | 0.564
RRIRVRPPRLPRPRPRPDQPPRP | 0.166
RRIRHRPPRLPRPRPRPFDLPRP | -0.211
RRIRWRPPRLPRPRPRPKGHPRP | 0.108
RRIRLRPPRLPRPRPRPYSDPRP | -0.0348
RRIRSRPPRLPRPRPRPWINPRP | -0.205
RRIRFRPPRLPRPRPRPVQYPRP | -0.445
RRIRIRPPRLPRPRPRPRGIPRP | -0.0459
RRIRPRPPRLPRPRPRPFKDPRP | -0.93
RRIRGRPPRLPRPRPRPIGLPRP | 0.19
RRIRIRPPRLPRPRPRPFEGPRP | -0.221
RRIRARPPRLPRPRPRPHWSPRP | -0.0356
RRIRPRPPRLPRPRPRPKKVPRP | 0.0308
RRIRIRPPRLPRPRPRPAFDPRP | -0.295
RRIRWRPPRLPRPRPRPRPEPRP | 0.502
RRIRPRPPRLPRPRPRPSCCPRP | -0.0575

Sequence | shrunken log2 fold change
RRIRARPPRLPRPRPRPNKGPRP | -0.0254
RRIRGRPPRLPRPRPRPMTCPRP | 0.133
RRIRQRPPRLPRPRPRPTCTPRP | -0.0329
RRIRMRPPRLPRPRPRPCYVPRP | -0.506
RRIRRRPPRLPRPRPRPLAIPRP | 0.0863
RRIRHRPPRLPRPRPRPVTWPRP | -0.268
RRIRGRPPRLPRPRPRPGIRPRP | 0.208
RRIRPRPPRLPRPRPRPLNVPRP | -0.448
RRIRQRPPRLPRPRPRPCFEPRP | 0.0423
RRIRVRPPRLPRPRPRPQMNPRP | -0.0919
RRIRERPPRLPRPRPRPKRKPRP | 0.25
RRIRQRPPRLPRPRPRPETHPRP | 0.0176
RRIRWRPPRLPRPRPRPIFNPRP | -0.217
RRIRFRPPRLPRPRPRPCSTPRP | -0.177
RRIRNRPPRLPRPRPRPGQSPRP | 0.108
RRIRIRPPRLPRPRPRPLDAPRP | -0.142
RRIRERPPRLPRPRPRPWRTPRP | -0.259
RRIRMRPPRLPRPRPRPIPSPRP | 0.0101
RRIRARPPRLPRPRPRPHYFPRP | 0.0061
RRIRPRPPRLPRPRPRPKWEPRP | -0.0741
RRIRIRPPRLPRPRPRPIPGPRP | -0.191
RRIRGRPPRLPRPRPRPSAFPRP | 1.1
RRIRDRPPRLPRPRPRPWCDPRP | 0.211
RRIRGRPPRLPRPRPRPTILPRP | 0.131
RRIRDRPPRLPRPRPRPQQNPRP | -0.452

Sequence | shrunken log2 fold change
RRIRNRPPRLPRPRPRPWYRPRP | -0.117
RRIRCRPPRLPRPRPRPYKAPRP | -0.279
RRIRYRPPRLPRPRPRPFCVPRP | -0.264
RRIRLRPPRLPRPRPRPLSFPRP | -0.15
RRIRLRPPRLPRPRPRPFDSPRP | -0.174
RRIRYRPPRLPRPRPRPKCAPRP | 0.0118
RRIRCRPPRLPRPRPRPPRGPRP | 0.67
RRIRERPPRLPRPRPRPMTHPRP | -0.0346
RRIRCRPPRLPRPRPRPDACPRP | 0.175
RRIRYRPPRLPRPRPRPDFKPRP | -0.261
RRIRARPPRLPRPRPRPSPFPRP | 0.0195
RRIRQRPPRLPRPRPRPPMSPRP | -0.139
RRIRMRPPRLPRPRPRPGCLPRP | 0.503
RRIRARPPRLPRPRPRPRHLPRP | 0.11
RRIRERPPRLPRPRPRPAWPPRP | 0.359
RRIRLRPPRLPRPRPRPCQCPRP | -0.672
RRIRIRPPRLPRPRPRPYSGPRP | 0.00727
RRIRVRPPRLPRPRPRPIHIPRP | -1.11
RRIRVRPPRLPRPRPRPTRTPRP | 0.495
RRIRQRPPRLPRPRPRPNNVPRP | -0.149
RRIRFRPPRLPRPRPRPRGLPRP | -0.0929
RRIRPRPPRLPRPRPRPCHAPRP | -0.242
RRIRQRPPRLPRPRPRPGMSPRP | 0.285
RRIRARPPRLPRPRPRPHYGPRP | 0.0153
RRIRGRPPRLPRPRPRPTDWPRP | 0.8

Sequence | shrunken log2 fold change
RRIRFRPPRLPRPRPRPTNYPRP | -0.587
RRIRWRPPRLPRPRPRPVFTPRP | 0.0746
RRIRYRPPRLPRPRPRPNDIPRP | -0.299
RRIRTRPPRLPRPRPRPNVDPRP | -0.625
RRIRMRPPRLPRPRPRPKRNPRP | 1.66
RRIRQRPPRLPRPRPRPCQSPRP | -0.0019
RRIRRRPPRLPRPRPRPPDRPRP | 0.21
RRIRRRPPRLPRPRPRPTYPPRP | 0.0623
RRIRGRPPRLPRPRPRPLWYPRP | 0.298
RRIRARPPRLPRPRPRPYKLPRP | -0.467
RRIRMRPPRLPRPRPRPGCFPRP | 0.773
RRIRNRPPRLPRPRPRPVKLPRP | 0.032
RRIRRRPPRLPRPRPRPIDRPRP | -0.0459
RRIRIRPPRLPRPRPRPVIEPRP | -0.121
RRIRERPPRLPRPRPRPCLQPRP | -0.218
RRIRMRPPRLPRPRPRPVLKPRP | 0.072
RRIRPRPPRLPRPRPRPFHLPRP | -0.54
RRIRFRPPRLPRPRPRPTIFPRP | -0.274
RRIRQRPPRLPRPRPRPESQPRP | -0.0174
RRIRVRPPRLPRPRPRPPNNPRP | -0.233
RRIRCRPPRLPRPRPRPSGGPRP | -0.0862
RRIRNRPPRLPRPRPRPIAVPRP | -0.0167
RRIRYRPPRLPRPRPRPNLHPRP | -0.821
RRIRTRPPRLPRPRPRPNWWPRP | 0.188
RRIRMRPPRLPRPRPRPYPAPRP | -0.246

Sequence | shrunken log2 fold change
RRIRTRPPRLPRPRPRPEGDPRP | 0.0354
RRIRKRPPRLPRPRPRPLPSPRP | 0.0447
RRIRMRPPRLPRPRPRPTLAPRP | 1.35
RRIRRRPPRLPRPRPRPSAHPRP | -0.0606
RRIRWRPPRLPRPRPRPCVGPRP | 0.352
RRIRGRPPRLPRPRPRPYRPPRP | -0.186
RRIRTRPPRLPRPRPRPHTKPRP | -0.0963
RRIRIRPPRLPRPRPRPRSAPRP | 0.0737
RRIRMRPPRLPRPRPRPTYMPRP | -0.131
RRIRGRPPRLPRPRPRPCPDPRP | 0.359
RRIRNRPPRLPRPRPRPKGIPRP | 0.0346
RRIRYRPPRLPRPRPRPDFLPRP | -0.542
RRIRLRPPRLPRPRPRPPAFPRP | 0.144
RRIRFRPPRLPRPRPRPALMPRP | -0.0289
RRIRHRPPRLPRPRPRPINIPRP | -1.01
RRIRPRPPRLPRPRPRPSWPPRP | 0.359
RRIRTRPPRLPRPRPRPCVAPRP | 0.192
RRIRARPPRLPRPRPRPTAPPRP | 0.8
RRIRYRPPRLPRPRPRPPHQPRP | 0.378
RRIRTRPPRLPRPRPRPGVIPRP | 0.0978
RRIRHRPPRLPRPRPRPWHLPRP | -1.9
RRIRSRPPRLPRPRPRPNRVPRP | -0.048
RRIRKRPPRLPRPRPRPSTEPRP | 0.136
RRIRKRPPRLPRPRPRPQCQPRP | 0.114
RRIRNRPPRLPRPRPRPRIEPRP | -0.117
